The text below walks through data of US20250268980A1, “AN ANTICANCER THERAPY TARGETING RAS AND OTHER ONCOGENIC SIGNALS BY INHIBITION OF DYNAMIC BLEBBING AND/OR SEPTINS” (THE BOARD OF REGENTS OF THE UNIVERSITY OF TEXAS SYSTEM, priority 2022, published 2025).

Experiment [1] deals with All Septins. The experiment in a line: HaloLink pulldown from MV3 cells, LC-MS/MS.
Experiment [2] addresses All Septins. The experiment in a line: HaloLink pulldown from unperturbed A375 cells, LC-MS/MS.

B1: mouse SEPT6-HALO (protein, UniProt Q9R1T4 2-434, looked up, not shown: small tags and cut ends; large carriers)
chain: AAADIARQVGEDCRTVPLAGHVGFDSLPDQLVNKSVSQGFCFNILCVGETGLGKSTLMDTLFNTKFEGEPATHTQPGVQLQSNTYDLQESNVGLKLTIVSTVGFGDQINKEDSYKPIVEFIDAQFEAYLQEELKIRRVLHSYHDSRIHVCLYFIAPTGHSLKSLDLVTMKKLDSKVNIIPVIAKSDAISKSELAKFKIKITSELVSNGVQIYQFPTDDESVSEINGTMNAHLPFAVVGSTEEVKIGNKMMRARQYPWGTVQVENEAHCDFVKLREMLIRVNMEDLREQTHARHYELYRRCKLEEMGFKDTDPDSKPFSLQETYEAKRNEFLGELQKKEEEMRQMFVQRVKEKEAELKEAEKELHEKFDRLKKLHQEEKKKLEDKKKCLDEEMNAFKQRKAAAELLQSQGSQAGGSQTLKRDKEKKNNPWLCIE
In the experiment with All Septins [1], B1 came in with a % of total protein abundance of 8.06%; a fold change between lysate and pulldown (% of total protein abundance) of 35.9 fold. In the experiment with All Septins [2], this molecule registered a % of total protein abundance of 7.04%; a fold change between lysate and pulldown (% of total protein abundance) of 56 fold.
